Consider 2 molecules from PMC5148603.

The target of test [1] is T1, bovine lipoprotein lipase (bovine) (UniProt P11151).
T1 sequence: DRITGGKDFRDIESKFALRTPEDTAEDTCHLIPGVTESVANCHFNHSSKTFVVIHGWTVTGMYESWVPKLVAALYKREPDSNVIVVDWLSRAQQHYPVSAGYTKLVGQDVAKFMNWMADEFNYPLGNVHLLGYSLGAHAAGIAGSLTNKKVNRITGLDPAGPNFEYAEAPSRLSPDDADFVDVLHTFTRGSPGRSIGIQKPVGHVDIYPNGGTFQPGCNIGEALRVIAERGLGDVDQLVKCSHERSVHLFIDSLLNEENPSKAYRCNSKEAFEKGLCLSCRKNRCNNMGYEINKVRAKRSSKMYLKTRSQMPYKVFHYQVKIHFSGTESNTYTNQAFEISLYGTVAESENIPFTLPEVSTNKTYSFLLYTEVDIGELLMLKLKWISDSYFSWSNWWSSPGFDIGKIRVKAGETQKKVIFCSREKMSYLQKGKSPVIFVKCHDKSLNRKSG
The conditions noted are these: scale: molecules of LPL per ANGPTL4 molecule per min.

The target of test [2] is coiled-coil domain of wild-type human ANGPTL4 (residues 1–159) (human). Put plainly: SDS-PAGE before and after reduction (disulfide-linked oligomers); Coomassie blue-stained gel of purified ANGPTL4 1–159 before and after reduction and alkylation; optical scanning of lanes of two-fold serial dilutions.
Test [3] addresses T1, bovine lipoprotein lipase (bovine). The conditions noted are these: scale: molecules LPL per ANGPTL4 molecule per min.

As usually defined, the stoichiometry N is the number of molecules, sites or subunits per partner or assembly. Regarding “coiled-coil domain of wild-type human ANGPTL4 (residues 1–159) (domain or fragment)”, the catalytic efficacy of unfolding of LPL's hydrolase domain (pulse-labelling HDX-MS, bimodality of peptide 131–165); 10 µM LPL with 0.25, 0.5 and 1 µM ANGPTL4 1–159, 25°C, early time points in test [1] came out at 1.6. For the same molecule, in test [2], the percent of the total protein that is covalent (disulfide-linked) dimer was 10% and the stoichiometry N stood at 2.

B1: coiled-coil domain of human ANGPTL4 E15K (residues 1–159) (domain or fragment)
chain: MGPVQSKSPRFASWDKMNVLAHGLLQLGQGLREHAERTRSQLSALERRLSACGSACQGTEGSTDLPLAPESRVDPEVLHSLQTQLKAQNSRIQQLFHKVAQQQRHLEKQHLRIQHLQSQFGLLDHKHLDHEVAKPARRKRLPEMAQPVDPAHNVSRLHRL
Regarding B1, the catalytic efficacy of unfolding of LPL's hydrolase domain (pulse-labelling HDX-MS, peptide 131–165); 10 µM LPL with 0.5, 1 and 2 µM ANGPTL4 1–159/E15K, 25°C, linear phases of the progress curves in test [3] was 0.6.
